Results as given in paper PMC3384303 (Nucleic Acids Research, 2012).

Molecular target: the molecule itself
Assay: crystal structure

B1: SsbB (natural protein, Bacillus subtilis, UniProt C0SPB6 1-113, looked up)
chain: MFNQVMLVGRLTKDPDLRYTSAGAAVAHVTLAVNRSFKNASGEIEADYVNCTLWRKTAENTALYCQKGSLVGVSGRIQTRSYENEEGVNVYVTEVLADTVRFMDPKPREKAAD
stoichiometry N: 4
